Laboratory results reported in publication PMC12442453 (2025).

Molecular target: T1, human EPOR ectodomain (ECD) fused to a human Fc domain (EPOR-Fc) (human, UniProt P19235 25-250)
T1 chain: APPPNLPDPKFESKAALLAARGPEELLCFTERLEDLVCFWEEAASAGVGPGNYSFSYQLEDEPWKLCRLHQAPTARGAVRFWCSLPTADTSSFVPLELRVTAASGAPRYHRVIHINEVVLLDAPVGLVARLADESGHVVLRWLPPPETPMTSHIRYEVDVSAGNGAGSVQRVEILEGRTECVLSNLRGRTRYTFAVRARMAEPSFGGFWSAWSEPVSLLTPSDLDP
Assay: ELISA

B1: Db-Fc 1.1 (Fc fusion)
chain 1: EVQLVESGGGLVQPGGSLRLSCAASGFNLRSYYMHWVRQAPGKGLEWVASISPYYSYTYYADSVKGRFTISADTSKNTAYLQMNSLRAEDTAVYYCARHGYGAMDYWGQGTLVTVSS
chain 2: DIQMTQSPSSLSASVGDRVTITCRASQSVSSAVAWYQQKPGKAPKLLIYSASSLYSGVPSRFSGSRSGTDFTLTISSLQPEDFATYYCQQSSYSLITFGQGTKVEIK
- EC50: 0.9 nM
